In patent US20180346588A1:

Molecular target: human mesothelin (MSLN) on the cell surface (human) (UniProt Q13421)
Experiment: FACS on MiaPaCa-MSLN #2 cells, upper histogram and table

Sequence of human mesothelin (MSLN) on the cell surface (human) (Q13421 other isoform, or with tags, fused parts or gaps limits assumed): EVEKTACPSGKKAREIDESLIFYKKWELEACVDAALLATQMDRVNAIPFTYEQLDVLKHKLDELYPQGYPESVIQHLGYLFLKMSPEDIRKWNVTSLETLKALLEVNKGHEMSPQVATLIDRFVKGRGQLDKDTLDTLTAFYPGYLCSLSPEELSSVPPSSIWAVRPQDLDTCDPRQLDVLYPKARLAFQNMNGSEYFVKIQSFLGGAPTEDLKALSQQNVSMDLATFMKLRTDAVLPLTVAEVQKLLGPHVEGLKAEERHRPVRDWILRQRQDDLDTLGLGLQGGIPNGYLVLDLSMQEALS

B1: BAY94-9343 (antibody, INN chains, looked up, V domains shown)
VH: QVELVQSGAEVKKPGESLKISCKGSGYSFTSYWIGWVRQAPGKGLEWMGIIDPGDSRTRYSPSFQGQVTISADKSISTAYLQWSSLKASDTAMYYCARGQLYGGTYMDGWGQGTLVTVSS
VL: DIALTQPASVSGSPGQSITISCTGTSSDIGGYNSVSWYQQHPGKAPKLMIYGVNNRPSGVSNRFSGSKSGNTASLTISGLQAEDEADYYCSSYDIESATPVFGGGTKLTVL
modifications: ravtansine (DM4) payload
B1 was tested, and the Mean, FL2-H was 2710.
